Substitutions are numbered along the chain they refer to.

First the molecules themselves.
T1: PF3D7_0420300 D1 (Plasmodium falciparum, UniProt Q8I1N6 1956-2015)
T1 sequence: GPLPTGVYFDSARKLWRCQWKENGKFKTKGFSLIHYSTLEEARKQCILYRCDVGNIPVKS

B1: CACACA_site518 (dsDNA)
DNA 1: ATAATTAACAAATACACACACACACCCCCACAAAAA
DNA 2: TTTTTGTGGGGGTGTGTGTGTGTATTTGTTAATTAT
B2: CACACA_site240 (dsDNA)
DNA 1: TTTATTTATTAATACACACACACACCCCCACAAAAT
DNA 2: ATTTTGTGGGGGTGTGTGTGTGTATTAATAAATAAA
B3: CACACA_site366 (dsDNA)
DNA 1: CACACCCACCAACACACACACACACCCACCCATATA
DNA 2: TATATGGGTGGGTGTGTGTGTGTGTTGGTGGGTGTG
B4: CACACA_site639 (dsDNA)
DNA 1: AAAATACACGCATACACACACACACCCACCCATATA
DNA 2: TATATGGGTGGGTGTGTGTGTGTATGCGTGTATTTT
B5: CACACA_site2625 (dsDNA)
DNA 1: AAATAAATGAAACACACACACACAAAAAAAAAAAAC
DNA 2: GTTTTTTTTTTTTGTGTGTGTGTGTTTCATTTATTT
B6: CACACA_site8069 (dsDNA)
DNA 1: ACATAATTAACAAATACACACACACCCACCCACAAA
DNA 2: TTTGTGGGTGGGTGTGTGTGTATTTGTTAATTATGT
B7: CACACA_site8057 (dsDNA)
DNA 1: ATTAAACATACATATACACACACACCCACCCACCCA
DNA 2: TGGGTGGGTGGGTGTGTGTGTATATGTATGTTTAAT
B8: CACACA_negctrl_site1462 (dsDNA)
DNA 1: ATTTCTTTTTTTTTTTTTTTTAATGTAAAACATTTT
DNA 2: AAAATGTTTTACATTAAAAAAAAAAAAAAAAGAAAT
B9: CACACA_site638 (dsDNA)
DNA 1: AATACACGCAAACACACACACACACCCACATATATA
DNA 2: TATATATGTGGGTGTGTGTGTGTGTTTGCGTGTATT
B10: CACACA_site7104 (dsDNA)
DNA 1: B9 DNA 1 with T3C, A6G, A11G, C26G
DNA 2: B9 DNA 2 with G11C, T26C, T31C, A34G
B11: CACACA_negctrl_site899 (dsDNA)
DNA 1: AATAAATAAATAAATATATATATATATATATATATG
DNA 2: CATATATATATATATATATATATTTATTTATTTATT
B12: CACACA_site2917 (dsDNA)
DNA 1: ACCATACATACATACACACACACACCCATATATATA
DNA 2: TATATATATGGGTGTGTGTGTGTATGTATGTATGGT
B13: CACACA_site6306 (dsDNA)
DNA 1: AGCACACGCAGACACACACACACACGCACACGCACA
DNA 2: TGTGCGTGTGCGTGTGTGTGTGTGTCTGCGTGTGCT
B14: CACACA_site1736 (dsDNA)
DNA 1: ATAGTATACAGACACACACACACACCCATATATATA
DNA 2: TATATATATGGGTGTGTGTGTGTGTCTGTATACTAT
B15: CACACA_site6305 (dsDNA)
DNA 1: CACACGCACGAACACACACACACACGCACGCACATA
DNA 2: TATGTGCGTGCGTGTGTGTGTGTGTTCGTGCGTGTG
B16: CACACA_site8059 (dsDNA)
DNA 1: CATACATATAAACACACACACACACCCACCCACAAA
DNA 2: TTTGTGGGTGGGTGTGTGTGTGTGTTTATATGTATG
B17: CACACA_site492 (dsDNA)
DNA 1: TAAACATACATATACACACACACACCCACACCCACA
DNA 2: TGTGGGTGTGGGTGTGTGTGTGTATATGTATGTTTA

For the series, the target named is T1, PF3D7_0420300 D1. In words: gcPBM; about 25 ug protein; PBS, 1% milk, 0.2 mg/ml BSA, salmon testes DNA, 0.03% Triton X-100. The note with it: tags: N-terminal GST (pGEX-4T-1), kept; label: surface-attached array probe.
With B1, the binding signal is 10.6 ln median PBM intensity, better of two orientations.

As for B2, the binding signal was 10.5 ln median PBM intensity, better of two orientations.

As for B3, the binding signal is 10.4 ln median PBM intensity, better of two orientations.

Turning to B4, the binding signal is 10.5 ln median PBM intensity, better of two orientations.

Consider B5, for which the binding signal was 10.5 ln median PBM intensity, better of two orientations.

Take B6: the binding signal was 10.5 ln median PBM intensity, better of two orientations.

As to B7, the binding signal was 10.9 ln median PBM intensity, better of two orientations.

With B8, the binding signal was 9.11 ln median PBM intensity, better of two orientations.

Regarding B9, the binding signal is 10.5 ln median PBM intensity, better of two orientations.

For the molecule B10, the binding signal was 10.5 ln median PBM intensity, better of two orientations.

For the molecule B11, the binding signal was 9.11 ln median PBM intensity, better of two orientations.

With B12, the binding signal was 10.4 ln median PBM intensity, better of two orientations.

As for B13, the binding signal was 10.5 ln median PBM intensity, better of two orientations.

Consider B14, for which the binding signal is 10.4 ln median PBM intensity, better of two orientations.

Turning to B15, the binding signal was 10.4 ln median PBM intensity, better of two orientations.

As to B16, the binding signal was 10.5 ln median PBM intensity, better of two orientations.

With B17, the binding signal was 10.4 ln median PBM intensity, better of two orientations.

These data come from publication PMC11417369, “DNA sequence and chromatin differentiate sequence-specific transcription factor binding in the human malaria parasite Plasmodium falciparum”.
